Read-outs that look alike come from different tables or passages of the source.

The target in assay [1] is T1, CEACAM1 (Sino Biological) (human, UniProt P13688 35-428, limits assumed).
T1 construct: may be the same as CEACAM1-HIS; also called hCEACAM1; biotinylated soluble CEACAM1
T1 sequence: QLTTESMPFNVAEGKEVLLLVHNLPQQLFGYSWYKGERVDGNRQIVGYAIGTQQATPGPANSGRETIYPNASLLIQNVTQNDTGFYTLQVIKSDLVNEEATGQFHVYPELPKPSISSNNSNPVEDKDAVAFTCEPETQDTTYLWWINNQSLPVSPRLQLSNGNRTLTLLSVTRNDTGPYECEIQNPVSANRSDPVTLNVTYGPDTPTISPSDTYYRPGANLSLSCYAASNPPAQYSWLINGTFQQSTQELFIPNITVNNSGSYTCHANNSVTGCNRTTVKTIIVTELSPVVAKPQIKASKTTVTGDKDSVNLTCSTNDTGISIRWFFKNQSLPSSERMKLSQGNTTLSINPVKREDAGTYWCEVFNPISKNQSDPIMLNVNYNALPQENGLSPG
Briefly: SPR single-cycle. An outline of the steps:
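Humanized affinity-matured IgGs from crude supernatants captured on Protein A to ~100 RU, with CEACAM1 analyte injected at 25–100 nM (three-point, two-fold) in HBS-P+ without regeneration. 200 s association per injection, 300 s single dissociation; reference-channel and blank subtracted.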

Assay [2] addresses T1, CEACAM1 (Sino Biological). Briefly: SPR multi-cycle, IgG on Protein A. The method, then: Multi-cycle kinetics analysis was performed on the twelve lead antibodies using a Biacore T200 instrument running Biacore T200 Evaluation Software V3.0.1 (Uppsala, Sweden) to establish an accurate affinity for CEACAM1. The purified antibodies were diluted to a concentration of […] in HBS-P+. At the start of each cycle, each antibody was captured on the Protein A surface to give an RL of ˜100 RU. Following capture, the surface was allowed to stabilize. Kinetic data was obtained using a flow rate of […] to minimize any potential mass transfer effects. For the kinetics analysis, CEACAM1 was used. Multiple repeats of the blank ([…]) and a repeat of a single concentration of the analyte were programmed into the kinetic run in order to check the stability of both the surface and analyte over the kinetic cycles. For kinetic analysis, a two-fold dilution range was selected from 200 to 3.125 nM CEACAM1. The association phase of CEACAM1 was monitored for 275 seconds and the dissociation phase was measured for 250 seconds. Regeneration of the Protein A surface was conducted using two injections of 10 mM glycine-HCL pH 1.5 at the end of each cycle.
The signal from the reference channel Fc1 was subtracted from that of Fc2, Fc3 and Fc4 to correct for differences in non-specific binding to a reference surface, and a global Rmax parameter was used in the 1-to-1 binding model. The relative KD was calculated by dividing the KD of the RSB02 Parent by that of the humanized and affinity matured variants on the same chip.

The target of assay [3] is T2, CEACAM3 (Sino Biological) (human, UniProt P40198 35-155, limits assumed).
T2 construct: also called hCEACAM3
T2 sequence (looked up): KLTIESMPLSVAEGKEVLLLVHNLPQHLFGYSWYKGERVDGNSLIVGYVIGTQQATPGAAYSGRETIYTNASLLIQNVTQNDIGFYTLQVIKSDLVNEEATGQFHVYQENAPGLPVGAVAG
The experiment in a line: binding ELISA on plate-coated CEACAM (0.5 µg/mL); antibody at 1.67, 0.062 and 0.0069 µg/mL; signal as % of parent IgG on CEACAM1 at 1.67 µg/mL on the same plate.

The target of assay [4] is T3, CEACAM6 (Sino Biological) (human, UniProt P40199 35-320).
T3 construct: also called hCEACAM6
T3 sequence (looked up): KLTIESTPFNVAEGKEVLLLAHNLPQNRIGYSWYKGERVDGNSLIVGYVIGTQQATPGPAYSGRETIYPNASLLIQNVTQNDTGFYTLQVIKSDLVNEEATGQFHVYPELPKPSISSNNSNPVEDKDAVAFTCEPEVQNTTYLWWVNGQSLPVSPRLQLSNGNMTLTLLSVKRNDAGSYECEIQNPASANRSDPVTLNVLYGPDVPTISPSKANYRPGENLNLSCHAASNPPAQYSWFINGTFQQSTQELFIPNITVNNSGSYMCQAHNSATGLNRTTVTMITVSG
The assay is described as above.

Assay [5] concerns the target T2, CEACAM3 (Sino Biological). The assay is described as above. The source holds these as a separate data set.
Assay [6] concerns the target T3, CEACAM6 (Sino Biological). The assay is described as above. This is another data set of the same source.
Assay [7] deals with T4, CEACAM6 on transfected HeLa cells (UniProt P40199 35-320, limits assumed).
T4 construct: whole, on cells; also called C6
T4 sequence (looked up): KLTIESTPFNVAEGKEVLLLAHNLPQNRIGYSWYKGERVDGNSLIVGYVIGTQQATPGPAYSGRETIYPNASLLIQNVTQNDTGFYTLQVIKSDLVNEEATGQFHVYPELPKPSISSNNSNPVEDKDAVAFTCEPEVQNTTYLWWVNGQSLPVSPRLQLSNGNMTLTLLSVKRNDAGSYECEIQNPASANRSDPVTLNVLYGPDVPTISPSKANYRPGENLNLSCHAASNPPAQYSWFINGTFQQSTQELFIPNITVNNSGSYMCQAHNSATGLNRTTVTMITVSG
The experiment in a line: flow cytometry, transfected HeLa. The method, then:
(§1) Binding selectivity of the selected antibody variants was assessed by flow cytometry using HeLa cells transfected with vectors expressing CEACAM1, CEACAM5, and CEACAM6, respectively. The resulting cells were used for flow cytometry experiments and were cultured at 37° C., 5.0% CO₂ in Dulbecco's modified Eagle's medium supplemented with 10% fetal bovine serum, penicillin (100 U/ml) and dihydrostreptomycin ([…]). Cell lines were stained with the indicated antibodies followed by fluorochrome-conjugated monoclonal antibody specific for the indicated antibody isotypes such as human IgG4 or mouse IgG1 together with viable dye (DAPI). Data were acquired with a Cytoflex flow cytometer ([…]) and analyzed with FlowJo software (TreeStar, V7.6.5 for Windows).

Assay [8] concerns the target T5, CEACAM1 on transfected HeLa cells (Homo sapiens (Human), UniProt P13688 35-526).
T5 construct: also called C1
T5 sequence: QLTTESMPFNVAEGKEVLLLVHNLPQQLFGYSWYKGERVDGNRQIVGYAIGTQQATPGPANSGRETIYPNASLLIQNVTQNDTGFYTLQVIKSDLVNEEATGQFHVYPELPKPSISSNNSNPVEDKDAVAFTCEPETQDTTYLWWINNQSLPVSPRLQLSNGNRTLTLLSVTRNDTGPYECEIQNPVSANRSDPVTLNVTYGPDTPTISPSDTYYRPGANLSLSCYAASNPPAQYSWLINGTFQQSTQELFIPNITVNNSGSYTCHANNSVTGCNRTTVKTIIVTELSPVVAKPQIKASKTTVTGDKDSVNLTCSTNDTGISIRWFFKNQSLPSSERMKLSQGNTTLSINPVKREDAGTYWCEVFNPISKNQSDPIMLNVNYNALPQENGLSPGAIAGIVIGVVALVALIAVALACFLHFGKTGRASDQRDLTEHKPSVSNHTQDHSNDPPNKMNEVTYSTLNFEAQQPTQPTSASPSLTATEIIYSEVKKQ
The experiment in a line: flow cytometry, transfected HeLa. The method, then: as §1

The target in assay [9] is T6, CEACAM1-HIS (Sino Biologics Inc.) (Homo sapiens (Human), UniProt P13688 35-428).
T6 construct: bought; not shown: His tag
T6 sequence: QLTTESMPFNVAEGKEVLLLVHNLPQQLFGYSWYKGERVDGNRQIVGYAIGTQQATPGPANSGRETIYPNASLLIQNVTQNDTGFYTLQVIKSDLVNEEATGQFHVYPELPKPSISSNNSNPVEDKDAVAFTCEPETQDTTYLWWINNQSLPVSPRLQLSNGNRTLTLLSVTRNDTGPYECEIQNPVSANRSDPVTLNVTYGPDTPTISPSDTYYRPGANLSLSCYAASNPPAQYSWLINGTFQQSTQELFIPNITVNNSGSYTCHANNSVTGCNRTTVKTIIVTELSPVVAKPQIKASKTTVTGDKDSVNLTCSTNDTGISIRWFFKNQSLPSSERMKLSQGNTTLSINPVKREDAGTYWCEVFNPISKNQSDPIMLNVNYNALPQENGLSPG
Briefly: SPR single-cycle, IgG on Protein A. The method, then:
As an alternative approach to assess the binding of the antibody combinations and the control antibodies to CEACAM1, a kinetic analysis was performed on a Biacore T200 running Biacore T200 Evaluation Software V2.0.1. All experiments were run at 25° C. with HBS-P+ running buffer (pH 7.4).
In order to assess the binding of all Composite Human Antibody™ variants, single cycle kinetic analysis was performed on the supernatants of all the transiently transfected HEK EBNA cells. Purified chimeric antibody and purified chimeric antibody spiked into HEK EBNA media were used as positive controls. Supernatants were diluted in HBS-P+ to a concentration of 1 μg/mL (as determined by an IgG quantitation ELISA). At the start of each cycle, antibodies were loaded onto Fc2, Fc3 and Fc4 of a Protein A chip and captured at a flow rate of 8 μL/min to give an RU of ˜100. The surface was then allowed to stabilize. Single cycle kinetic data was obtained at a flow rate of […] to minimize any potential mass transfer effects. Multiple repeats of the chimeric antibody were performed to check the stability of the surface and analyte over the kinetic cycles. The signal from the reference channel Fc1 (no antibody) was subtracted from that of Fc2, Fc3 and Fc4 to correct for differences in non-specific binding to a reference surface. A 5 point 2-fold dilution range from 3.125 to 50 nM CEACAM1 without regeneration between each concentration was used. The association phase for the 5 injections of increasing concentrations of CEACAM1 was monitored for 150 seconds and a single dissociation phase was measured for 150 seconds following the last injection of CEACAM1. Regeneration of the Protein A was conducted using 2 injections of 10 mM glycine-HCL pH 1.5 followed by a stabilization period of 500 seconds.
In the raw sensorgrams for the single cycle kinetics, the signal from each antibody blank run (no CEACAM1) was subtracted to correct for differences in surface stability.

The target of the next assay is T7, human GST-CEACAM1 (human, UniProt P13688 35-141, limits assumed).
T7 construct: printed both as GST-CEACAM1 and CEACAM1-GST; also called human CEACAM1-GST protein; hCEACAM1-GST; not shown: GST tag
T7 sequence: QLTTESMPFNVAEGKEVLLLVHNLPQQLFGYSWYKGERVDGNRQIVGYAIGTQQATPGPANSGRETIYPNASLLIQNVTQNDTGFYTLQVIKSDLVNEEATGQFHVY
Briefly: competition ELISA vs murine parent antibody. The method, then:
The binding of the purified chimeric antibody to human CEACAM1 was assessed in a competition ELISA assay. Nunc Immuno MaxiSorp 96 well flat bottom microtitre plates were pre-coated with 1 μg/ml human GST-CEACAM1 in 1×PBS, overnight at 4° C. The following day the plates were blocked for 1 hour at room temperature with 2% BSA/PBS before washing 2× with PBS/0.05% Tween 20 pH 7.4.
The binding of the purified antibodies to human CEACAM1 were assessed in a competition ELISA assay as described above. The ability of each variant to compete against the murine parental antibody for binding to the GST-CEACAM1 was compared to that of the chimeric antibody (VH0/Vκ0), which was included on each plate.

B1: He17/L16 (antibody, IgG4, V domains shown)
VH: EVQLLESGGGLVQPGGSLRLSCAASGFSFSDYYLYWVRQAPGKGLEWVATISVGGGQTSYADSVKGRFTISRDNSKNTLYLQMNSLRAEDTAMYYCTRARTYGPAWFAYWGQGTLVTVSS
VL: DIVMTQSPDSLAVSLGERATINCKSSQSLLNSANQKNYLAWYQQKPGQPPKLLIYFASTRESGVPDRFSGSGSGTDFTLTISSLQAEDVAVYYCQSHYPYPFTFGGGTKVEIK
notes: IgG4 S241P, kappa; also called 17 / 16
As for B1, in [1], the Kd stood at 67 nM and the “fold better than Parent (KD)” value was 2.36 fold. Besides, in assay [2], the Kd was 25.8 nM, the koff came to 0.00795 s⁻¹, the kon is 308000 M⁻¹ s⁻¹ and the “relative KD to Parent” value amounted to 3.31 ratio. Also, in [3], the binding result is given as “no binding (tested: 1.67 µg/mL)”. Besides, in assay [4], the binding result was “no binding (tested: 1.67 µg/mL)”.

B2: He14/L1 (antibody, IgG4, V domains shown)
VH: EVQLLESGGGLVQPGGSLRLSCAASGFSFSDYYLYWVRQAPGKGLEWVATISVGGGQTSYADSVKGRFTISRDNSKNTLYLQMNSLRAEDTAMYYCTRGLYYGPSWVAYWGQGTLVTVSS
VL: DIVMTQSPDSLAVSLGERATINCKSSQSLLNSANQKNYLAWYQQKPGQPPKLLIYFASTRESGVPDRFSGSGSGTDFTLTISSLQAEDVAVYYCQSHYPFYYTFGGGTKVEIK
notes: IgG4 S241P, kappa; also called He14 / 1
On to B2, for which, in assay [1], the Kd worked out at 69 nM and the “fold better than Parent (KD)” value worked out at 2.3 fold. In addition, in assay [2], the Kd is 67.3 nM, the koff was 0.00724 s⁻¹, the kon amounted to 108000 M⁻¹ s⁻¹ and the “relative KD to Parent” value worked out at 1.83 ratio. For the same molecule, the binding result in assay [5] is listed as “no binding (tested: 1.67 µg/mL)”. For the same molecule, the binding result in assay [6] is “no binding (tested: 1.67 µg/mL)”.

B3: VH1/Vκ4 (antibody, IgG4, V domains shown)
VH: EVQLLESGGGLVQPGGSLRLSCAASGFSFSDYYLYWVRQAPGKGLEWVATISVGGGNTSYPDSVKGRFTISRDNSKNTLYLQMNSLRAEDTAMYYCTRGLYYGPAWFAYWGQGTLVTVSS
VL: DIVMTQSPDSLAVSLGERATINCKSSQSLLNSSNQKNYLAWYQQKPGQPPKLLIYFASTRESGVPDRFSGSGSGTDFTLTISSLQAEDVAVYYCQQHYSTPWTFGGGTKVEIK
notes: IgG4 (S241P), kappa; also called VH1/VK4
B3 returned a relative fluorescence intensity in assay [7] of 1.19. In [8], this molecule returned a relative fluorescence intensity of 81.1. For the same molecule, in assay [9], the Kd was 143 nM and the “relative KD to chimeric parental antibody” value worked out at 3.3 ratio. Also, the “average relative IC50 (normalized to chimeric antibody)” value with human GST-CEACAM1 turned out to be 4.4 ratio.
